Literature values as cited in PMC4785862.
Like-named read-outs stand apart in the source and are kept apart here.

Legend:
IL-8 (Homo sapiens) [1] = target: IL-8 (Homo sapiens) (UniProt P10145)
IL-8 (Homo sapiens) [2] = target: IL-8 (Homo sapiens) (UniProt P10145); remark: listed apart in the source

IL-8 (Homo sapiens), sequence (P10145 28-99): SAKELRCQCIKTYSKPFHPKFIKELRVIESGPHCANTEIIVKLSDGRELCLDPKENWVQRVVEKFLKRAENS
CXCR2, sequence (P25025 whole entry): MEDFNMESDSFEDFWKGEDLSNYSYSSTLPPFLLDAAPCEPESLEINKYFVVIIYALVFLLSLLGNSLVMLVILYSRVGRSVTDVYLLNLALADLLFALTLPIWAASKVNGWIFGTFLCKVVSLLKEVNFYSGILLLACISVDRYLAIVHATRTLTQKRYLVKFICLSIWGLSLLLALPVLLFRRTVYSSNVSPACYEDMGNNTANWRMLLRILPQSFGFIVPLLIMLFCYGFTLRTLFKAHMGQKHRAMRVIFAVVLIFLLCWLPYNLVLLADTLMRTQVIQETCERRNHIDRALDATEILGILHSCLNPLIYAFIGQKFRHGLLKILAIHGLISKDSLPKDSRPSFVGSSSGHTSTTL
CXCR1, sequence (P25024 whole entry): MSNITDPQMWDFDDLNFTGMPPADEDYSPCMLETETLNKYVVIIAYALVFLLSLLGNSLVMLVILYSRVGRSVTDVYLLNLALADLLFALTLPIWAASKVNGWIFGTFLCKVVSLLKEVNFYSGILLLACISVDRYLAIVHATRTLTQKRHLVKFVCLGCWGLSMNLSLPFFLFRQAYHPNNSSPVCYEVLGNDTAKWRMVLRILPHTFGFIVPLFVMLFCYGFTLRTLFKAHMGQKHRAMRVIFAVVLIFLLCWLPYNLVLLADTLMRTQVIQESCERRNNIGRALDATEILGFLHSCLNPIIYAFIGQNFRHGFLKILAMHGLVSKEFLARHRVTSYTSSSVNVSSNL

Substance: CXCR2 (from UniProt P25025)
- Kd (IL-8 (Homo sapiens) [1]): 2.5 nM

Substance: CXCR1 (from UniProt P25024)
- Kd (IL-8 (Homo sapiens) [2]): 5 nM
